# Residue numbers refer to the chain shown, from its start. In names and notes the source's numbering stands.
# B1: GltPh-A V355C-S279C, unlabeled, O59010 1-425 (natural protein)
# chain: MGLYRKYIEYPVLQKILIGLILGAIVGLILGHYGYAHAVHTYVKPFGDLFVRLLKMLVMPIVFASLVVGAASISPARLGRVGVKIVVYYLLTSAFAVTLGIIMARLFNPGAGIHLAVGGQQFQPHQAPPLVHILLDIVPTNPFGALANGQVLPTIFFAIILGIAITYLMNSENEKVRKSAETLLDAINGLAEAMYKIVNGVMQYAPIGVFALIAYVMAEQGVHVVGELAKVTAAVYVGLTLQILLVYFVLLKIYGIDPISFIKHAKDAMLTAFVTRSSCGTLPVTMRVAKEMGISEGIYSFTLPLGATINMDGTALYQGVATFFIANALGSHLTVGQQLTIVLTAVLASIGTAGCPGAGAIMLAMVLHSVGLPLTDPNVAAAYAMILGIDAILDMGRTMVNVTGDLTGTAIVAKTEGTLVPR
# modifications: not checked
# B2: GltPh-A A353C-L130C, unlabeled, O59010 1-425 (natural protein)
# chain: B1 chain with L130C, C279S, A353C, C355V
# modifications: not checked
# B3: GltPh-A V355C-P129C, unlabeled, O59010 1-425 (natural protein)
# chain: B1 chain with P129C, C279S
# modifications: not checked
# What was measured:
# Test in all cases: SEC
# [1] = target: GltPh-A V355C-S279C, unlabeled (Pyrococcus Horikoshi), O59010
# [2] = target: GltPh-A A353C-L130C, unlabeled (Pyrococcus Horikoshi), O59010
# [3] = target: GltPh-A V355C-P129C, unlabeled (Pyrococcus Horikoshi), O59010
binder,measurement,setting,value
B1,stoichiometry N,[1],3
B2,stoichiometry N,[2],3
B3,stoichiometry N,[3],3

# Source: publication PMC3096012
